Each block holds one binder with its values, some of them ahead of it. *1 amine or outer side, *2 acyl side, *3 side chain or, on linkers, in order; H or OH if unused. Bridges are numbered along the chain shown (N, C = ends). Where no end group is shown, it is not given here. Side-chain parts run from the residue outwards. [ ]: non-standard residue; d: D form. The star is where a group is joined. C20 diacid = O=C(O)CCCCCCCCCCCCCCCCCCC(=O)*; γGlu = O=C(O)[C@H](CCC(=O)[*:2])N[*:1]; AEEA = NCCOCCOCC(=O)O; Aib = CC(C)(N)C(=O)O
Key:
Experiment in all cases: cell-based or functional assay
human GCG receptor = human GCG receptor (human, UniProt P47871 26-477)
Sequence of human GCG receptor (P47871 26-477): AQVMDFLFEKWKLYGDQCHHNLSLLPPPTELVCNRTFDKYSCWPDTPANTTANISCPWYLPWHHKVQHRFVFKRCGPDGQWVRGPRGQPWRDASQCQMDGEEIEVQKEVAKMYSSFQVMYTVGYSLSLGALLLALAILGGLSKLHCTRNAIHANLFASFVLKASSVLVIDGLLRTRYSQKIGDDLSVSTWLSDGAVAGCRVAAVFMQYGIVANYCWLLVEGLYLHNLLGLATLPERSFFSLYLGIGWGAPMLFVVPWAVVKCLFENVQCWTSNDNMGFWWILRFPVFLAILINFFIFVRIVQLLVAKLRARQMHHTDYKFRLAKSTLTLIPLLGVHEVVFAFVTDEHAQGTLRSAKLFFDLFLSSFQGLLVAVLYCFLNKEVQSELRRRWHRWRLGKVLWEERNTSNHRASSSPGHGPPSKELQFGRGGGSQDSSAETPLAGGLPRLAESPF

human GIP receptor = molecular target: T1, human GIP receptor (human, UniProt P48546 22-466)
T1 sequence (looked up): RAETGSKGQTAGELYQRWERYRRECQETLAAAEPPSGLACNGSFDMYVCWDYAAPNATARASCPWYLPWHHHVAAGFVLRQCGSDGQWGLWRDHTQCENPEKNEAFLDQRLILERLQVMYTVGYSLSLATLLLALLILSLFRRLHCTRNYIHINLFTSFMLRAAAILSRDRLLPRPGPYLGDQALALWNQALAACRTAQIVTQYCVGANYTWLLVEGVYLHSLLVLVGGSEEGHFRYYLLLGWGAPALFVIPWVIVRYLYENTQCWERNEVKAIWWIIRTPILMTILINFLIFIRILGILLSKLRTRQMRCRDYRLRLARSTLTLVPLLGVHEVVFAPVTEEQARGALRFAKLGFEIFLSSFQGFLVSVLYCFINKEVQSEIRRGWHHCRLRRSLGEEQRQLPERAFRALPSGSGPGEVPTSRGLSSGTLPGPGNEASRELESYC

human GLP-1 receptor = human GLP-1 receptor (human, UniProt P43220 24-463)

B2: triple agonist of SEQ ID NO: 5 (peptide)
peptide: Y[Aib]QGTFTSDYSK([AEEA-AEEA-γGlu-C20 diacid])ALDEKRAKEFVQWLLDQHPSSGQPPPS-NH2
modifications: lactam 16-20; N-terminus assumed
SMILES: CC(C)C[C@H](NC(=O)[C@H](C)NC(=O)[C@H](CCCCNC(=O)COCCOCCNC(=O)COCCOCCNC(=O)CC[C@H](NC(=O)CCCCCCCCCCCCCCCCCCC(=O)O)C(=O)O)NC(=O)[C@H](CO)NC(=O)[C@H](Cc1ccc(O)cc1)NC(=O)[C@H](CC(=O)O)NC(=O)[C@H](CO)NC(=O)[C@@H](NC(=O)[C@H](Cc1ccccc1)NC(=O)[C@@H](NC(=O)CNC(=O)[C@H](CCC(N)=O)NC(=O)C(C)(C)NC(=O)[C@@H](N)Cc1ccc(O)cc1)[C@@H](C)O)[C@@H](C)O)C(=O)N[C@@H](CC(=O)O)C(=O)N[C@H]1CCC(=O)NCCCC[C@@H](C(=O)N[C@@H](CCC(=O)O)C(=O)N[C@@H](Cc2ccccc2)C(=O)N[C@H](C(=O)N[C@@H](CCC(N)=O)C(=O)N[C@@H](Cc2c[nH]c3ccccc23)C(=O)N[C@@H](CC(C)C)C(=O)N[C@@H](CC(C)C)C(=O)N[C@@H](CC(=O)O)C(=O)N[C@@H](CCC(N)=O)C(=O)N[C@@H](Cc2c[nH]cn2)C(=O)N2CCC[C@H]2C(=O)N[C@@H](CO)C(=O)N[C@@H](CO)C(=O)NCC(=O)N[C@@H](CCC(N)=O)C(=O)N2CCC[C@H]2C(=O)N2CCC[C@H]2C(=O)N2CCC[C@H]2C(=O)N[C@@H](CO)C(N)=O)C(C)C)NC(=O)[C@H](C)NC(=O)[C@H](CCCNC(=N)N)NC(=O)[C@H](CCCCN)NC1=O
In vitro Activity Compared to Native Peptide (%) vs. Glucagon (relative titer from cAMP EC50) (human GCG receptor): 1.51 % of human GCG
In vitro Activity Compared to Native Peptide (%) vs. GIP (relative titer from cAMP EC50) (human GIP receptor): 5.29 % of human GIP
In vitro Activity Compared to Native Peptide (%) vs. GLP-1 (relative titer from cAMP EC50) (human GLP-1 receptor): 2.36 % of human GLP-1

B4: triple agonist of SEQ ID NO: 1 (peptide)
peptide: Y[Aib]QGTFTSDYSK([AEEA-AEEA-γGlu-C20 diacid])YLDEKAAKEFVQWLLDHHPSSGQPPPS-NH2
modifications: lactam 16-20; N-terminus assumed
SMILES: CC(C)C[C@H](NC(=O)[C@H](Cc1ccc(O)cc1)NC(=O)[C@H](CCCCNC(=O)COCCOCCNC(=O)COCCOCCNC(=O)CC[C@H](NC(=O)CCCCCCCCCCCCCCCCCCC(=O)O)C(=O)O)NC(=O)[C@H](CO)NC(=O)[C@H](Cc1ccc(O)cc1)NC(=O)[C@H](CC(=O)O)NC(=O)[C@H](CO)NC(=O)[C@@H](NC(=O)[C@H](Cc1ccccc1)NC(=O)[C@@H](NC(=O)CNC(=O)[C@H](CCC(N)=O)NC(=O)C(C)(C)NC(=O)[C@@H](N)Cc1ccc(O)cc1)[C@@H](C)O)[C@@H](C)O)C(=O)N[C@@H](CC(=O)O)C(=O)N[C@H]1CCC(=O)NCCCC[C@@H](C(=O)N[C@@H](CCC(=O)O)C(=O)N[C@@H](Cc2ccccc2)C(=O)N[C@H](C(=O)N[C@@H](CCC(N)=O)C(=O)N[C@@H](Cc2c[nH]c3ccccc23)C(=O)N[C@@H](CC(C)C)C(=O)N[C@@H](CC(C)C)C(=O)N[C@@H](CC(=O)O)C(=O)N[C@@H](Cc2c[nH]cn2)C(=O)N[C@@H](Cc2c[nH]cn2)C(=O)N2CCC[C@H]2C(=O)N[C@@H](CO)C(=O)N[C@@H](CO)C(=O)NCC(=O)N[C@@H](CCC(N)=O)C(=O)N2CCC[C@H]2C(=O)N2CCC[C@H]2C(=O)N2CCC[C@H]2C(=O)N[C@@H](CO)C(N)=O)C(C)C)NC(=O)[C@H](C)NC(=O)[C@H](C)NC(=O)[C@H](CCCCN)NC1=O
In vitro Activity Compared to Native Peptide (%) vs. Glucagon (relative titer from cAMP EC50) (human GCG receptor): 0.33 % of human GCG
In vitro Activity Compared to Native Peptide (%) vs. GIP (relative titer from cAMP EC50) (human GIP receptor): 5.18 % of human GIP
In vitro Activity Compared to Native Peptide (%) vs. GLP-1 (relative titer from cAMP EC50) (human GLP-1 receptor): 5.88 % of human GLP-1

B5: triple agonist of SEQ ID NO: 7 (peptide)
peptide: Y[Aib]QGTFTSDYSK([AEEA-AEEA-γGlu-C20 diacid])YLDEKRAKDFVQWLLDQHPSSGQPPPS-NH2
modifications: lactam 16-20; N-terminus assumed
SMILES: CC(C)C[C@H](NC(=O)[C@H](Cc1ccc(O)cc1)NC(=O)[C@H](CCCCNC(=O)COCCOCCNC(=O)COCCOCCNC(=O)CC[C@H](NC(=O)CCCCCCCCCCCCCCCCCCC(=O)O)C(=O)O)NC(=O)[C@H](CO)NC(=O)[C@H](Cc1ccc(O)cc1)NC(=O)[C@H](CC(=O)O)NC(=O)[C@H](CO)NC(=O)[C@@H](NC(=O)[C@H](Cc1ccccc1)NC(=O)[C@@H](NC(=O)CNC(=O)[C@H](CCC(N)=O)NC(=O)C(C)(C)NC(=O)[C@@H](N)Cc1ccc(O)cc1)[C@@H](C)O)[C@@H](C)O)C(=O)N[C@@H](CC(=O)O)C(=O)N[C@H]1CCC(=O)NCCCC[C@@H](C(=O)N[C@@H](CC(=O)O)C(=O)N[C@@H](Cc2ccccc2)C(=O)N[C@H](C(=O)N[C@@H](CCC(N)=O)C(=O)N[C@@H](Cc2c[nH]c3ccccc23)C(=O)N[C@@H](CC(C)C)C(=O)N[C@@H](CC(C)C)C(=O)N[C@@H](CC(=O)O)C(=O)N[C@@H](CCC(N)=O)C(=O)N[C@@H](Cc2c[nH]cn2)C(=O)N2CCC[C@H]2C(=O)N[C@@H](CO)C(=O)N[C@@H](CO)C(=O)NCC(=O)N[C@@H](CCC(N)=O)C(=O)N2CCC[C@H]2C(=O)N2CCC[C@H]2C(=O)N2CCC[C@H]2C(=O)N[C@@H](CO)C(N)=O)C(C)C)NC(=O)[C@H](C)NC(=O)[C@H](CCCNC(=N)N)NC(=O)[C@H](CCCCN)NC1=O
In vitro Activity Compared to Native Peptide (%) vs. Glucagon (relative titer from cAMP EC50) (human GCG receptor): 3.32 % of human GCG
In vitro Activity Compared to Native Peptide (%) vs. GIP (relative titer from cAMP EC50) (human GIP receptor): 5.26 % of human GIP
In vitro Activity Compared to Native Peptide (%) vs. GLP-1 (relative titer from cAMP EC50) (human GLP-1 receptor): 4.21 % of human GLP-1

The next lines start with the values.

In vitro Activity Compared to Native Peptide (%) vs. Glucagon (relative titer from cAMP EC50) (human GCG receptor): 1.36 % of human GCG
In vitro Activity Compared to Native Peptide (%) vs. GIP (relative titer from cAMP EC50) (human GIP receptor): 6.11 % of human GIP
In vitro Activity Compared to Native Peptide (%) vs. GLP-1 (relative titer from cAMP EC50) (human GLP-1 receptor): 7.94 % of human GLP-1
B1: triple agonist of SEQ ID NO: 6 (peptide)
peptide: H[Aib]HGTFTSDYSK([AEEA-AEEA-γGlu-C20 diacid])YLDEKAAKDFVQWLLDQHPSSGQPPPS-NH2
modifications: lactam 16-20; N-terminus assumed
SMILES: CC(C)C[C@H](NC(=O)[C@H](Cc1ccc(O)cc1)NC(=O)[C@H](CCCCNC(=O)COCCOCCNC(=O)COCCOCCNC(=O)CC[C@H](NC(=O)CCCCCCCCCCCCCCCCCCC(=O)O)C(=O)O)NC(=O)[C@H](CO)NC(=O)[C@H](Cc1ccc(O)cc1)NC(=O)[C@H](CC(=O)O)NC(=O)[C@H](CO)NC(=O)[C@@H](NC(=O)[C@H](Cc1ccccc1)NC(=O)[C@@H](NC(=O)CNC(=O)[C@H](Cc1c[nH]cn1)NC(=O)C(C)(C)NC(=O)[C@@H](N)Cc1c[nH]cn1)[C@@H](C)O)[C@@H](C)O)C(=O)N[C@@H](CC(=O)O)C(=O)N[C@H]1CCC(=O)NCCCC[C@@H](C(=O)N[C@@H](CC(=O)O)C(=O)N[C@@H](Cc2ccccc2)C(=O)N[C@H](C(=O)N[C@@H](CCC(N)=O)C(=O)N[C@@H](Cc2c[nH]c3ccccc23)C(=O)N[C@@H](CC(C)C)C(=O)N[C@@H](CC(C)C)C(=O)N[C@@H](CC(=O)O)C(=O)N[C@@H](CCC(N)=O)C(=O)N[C@@H](Cc2c[nH]cn2)C(=O)N2CCC[C@H]2C(=O)N[C@@H](CO)C(=O)N[C@@H](CO)C(=O)NCC(=O)N[C@@H](CCC(N)=O)C(=O)N2CCC[C@H]2C(=O)N2CCC[C@H]2C(=O)N2CCC[C@H]2C(=O)N[C@@H](CO)C(N)=O)C(C)C)NC(=O)[C@H](C)NC(=O)[C@H](C)NC(=O)[C@H](CCCCN)NC1=O

In vitro Activity Compared to Native Peptide (%) vs. Glucagon (relative titer from cAMP EC50) (human GCG receptor): 2.36 % of human GCG
In vitro Activity Compared to Native Peptide (%) vs. GIP (relative titer from cAMP EC50) (human GIP receptor): 3.81 % of human GIP
In vitro Activity Compared to Native Peptide (%) vs. GLP-1 (relative titer from cAMP EC50) (human GLP-1 receptor): 3.71 % of human GLP-1
B3: triple agonist of SEQ ID NO: 4 (peptide)
peptide: Y[Aib]QGTFTSDYSK([AEEA-AEEA-γGlu-C20 diacid])YLDEKRAKDFVQWLLDHHPSSGQPPPS-NH2
modifications: lactam 16-20; N-terminus assumed
SMILES: CC(C)C[C@H](NC(=O)[C@H](Cc1ccc(O)cc1)NC(=O)[C@H](CCCCNC(=O)COCCOCCNC(=O)COCCOCCNC(=O)CC[C@H](NC(=O)CCCCCCCCCCCCCCCCCCC(=O)O)C(=O)O)NC(=O)[C@H](CO)NC(=O)[C@H](Cc1ccc(O)cc1)NC(=O)[C@H](CC(=O)O)NC(=O)[C@H](CO)NC(=O)[C@@H](NC(=O)[C@H](Cc1ccccc1)NC(=O)[C@@H](NC(=O)CNC(=O)[C@H](CCC(N)=O)NC(=O)C(C)(C)NC(=O)[C@@H](N)Cc1ccc(O)cc1)[C@@H](C)O)[C@@H](C)O)C(=O)N[C@@H](CC(=O)O)C(=O)N[C@H]1CCC(=O)NCCCC[C@@H](C(=O)N[C@@H](CC(=O)O)C(=O)N[C@@H](Cc2ccccc2)C(=O)N[C@H](C(=O)N[C@@H](CCC(N)=O)C(=O)N[C@@H](Cc2c[nH]c3ccccc23)C(=O)N[C@@H](CC(C)C)C(=O)N[C@@H](CC(C)C)C(=O)N[C@@H](CC(=O)O)C(=O)N[C@@H](Cc2c[nH]cn2)C(=O)N[C@@H](Cc2c[nH]cn2)C(=O)N2CCC[C@H]2C(=O)N[C@@H](CO)C(=O)N[C@@H](CO)C(=O)NCC(=O)N[C@@H](CCC(N)=O)C(=O)N2CCC[C@H]2C(=O)N2CCC[C@H]2C(=O)N2CCC[C@H]2C(=O)N[C@@H](CO)C(N)=O)C(C)C)NC(=O)[C@H](C)NC(=O)[C@H](CCCNC(=N)N)NC(=O)[C@H](CCCCN)NC1=O
